The text below walks through data of patent publication US20260184768A1 (Regeneron, published 2026).

The target in experiment [1] is T1, full-length PcrV.6xhis (Pseudomonas aeruginosa).
T1 construct: Recombinant full-length V-tip protein of the type 3 secretion system, His-tagged; also called full-length PcrV with a C-terminal hexahistidine tag
Put plainly: SPR (Biacore T200), mAb captured via anti-human Fc, PcrV injected, 25 C.
Procedure: (§1) The equilibrium dissociation constant (KD) for different PcrV reagents binding to purified anti-PcrV monoclonal antibodies were determined using a real-time surface plasmon resonance based Biacore T200 biosensor. All binding studies were performed in 10 mM HEPES, 150 mM NaCl, 3.4 mM EDTA and 0.05% v/v Tween-20, pH 7.4 (HBS-EP) running buffer at 25° C. and 37° C. […] Proteins were injected over the captured anti-PcrV monoclonal antibody surface for 4 minutes at a flow rate of 50 μL/minute, while the dissociation of monoclonal antibody bound PcrV reagent was monitored for 10 minutes in HBS-EP running buffer.
(§2) Kinetic association (kₐ) and dissociation (kd) rate constants were determined by fitting the real-time sensorgrams to a 1:1 binding model using Scrubber 2.0c curve fitting software. Binding dissociation equilibrium constants (KD) and dissociative half-lives (t½) were calculated from the kinetic rate constants as:

Experiment [2] has as its target T2, PcrV of P. aeruginosa strain 6077 (Pseudomonas aeruginosa strain 6077). In words: cell-based or functional assay.
For experiment [3], the target named is T3, PcrV of P. aeruginosa strain ATCC 700888 (Pseudomonas aeruginosa strain ATCC …). Put plainly: cell-based or functional assay.
The target of experiment [4] is T4, PcrV (aa136-257).6xhis (Pseudomonas aeruginosa).
T4 chain: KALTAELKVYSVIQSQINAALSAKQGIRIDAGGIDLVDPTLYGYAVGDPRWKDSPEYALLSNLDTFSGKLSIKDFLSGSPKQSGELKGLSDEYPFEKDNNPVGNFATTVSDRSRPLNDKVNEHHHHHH
Put plainly: SPR (Biacore T200), mAb captured via anti-human Fc, PcrV injected, 25 C.
Procedure: as §1, §2

Experiment [5] deals with T4, PcrV (aa136-257).6xhis. In words: SPR (Biacore T200), mAb captured via anti-human Fc, PcrV injected, 37 C.
Procedure: as §1, §2
Experiment [6] deals with T5, recombinant full-length P. aeruginosa PcrV (Pseudomonas aeruginosa).
T5 construct: Coated on ELISA plates; also called Full length PcrV; Full length PerV
In words: ELISA, PcrV coated on plate, chemiluminescence.
Procedure: (§3) Anti-PcrV monoclonal antibodies (mAbs) were assessed by ELISA for their ability to bind to recombinant PcrV proteins. […] The following morning, plates were washed three times with wash buffer (Imidazole buffered saline with Tween-20) and blocked for 1.5 hours at 25° C. with 200 μl of blocking buffer (3% BSA in PBS). […] Wells were washed three times and then incubated with 100 ng/ml anti-human HRP secondary antibody per well for one hour at 25° C. 100 μl of SuperSignal™ ELISA Pico Chemiluminescent Substrate was added to each well and signal was detected (Victor X3 plate reader, Perkin Elmer). Luminescence values were analyzed by a four-parameter logistic equation over a 10-point response curve (GraphPad Prism).

Experiment [7] deals with PcrV 136-233 (Pseudomonas aeruginosa). Put plainly: ELISA, PcrV coated on plate, chemiluminescence.
Procedure: as §3
Experiment [8] has as its target T2, PcrV of P. aeruginosa strain 6077. Put plainly: cell-based or functional assay. This is another data set of the same source.
The target in experiment [9] is T3, PcrV of P. aeruginosa strain ATCC 700888. In words: cell-based or functional assay. This is another data set of the same source.
For experiment [10], the target named is T1, full-length PcrV.6xhis. In words: SPR (Biacore T200), mAb captured via anti-human Fc, PcrV injected, 37 C.
Procedure: as §1, §2

B1: H1H29339P (antibody, V domains shown)
VH: EVQLVESGGDLVQPGGSLRLSCAASGFTFNTYAMNWVRQAPGKGLEWVAVIGGSGYSTNYADSVKGRFTISRDNSKNTLYLQMNSLRTEDTAVYYCAKEGNIVALYWYFDLWGRGTLVTVSS
VL: DIQMTQSPSSLSASVGDRVTITCRASQSISRYLNWYQQKPGKAPKLLIYAASSLQGGVPSKFSGSGSGTDFTLTISSLQPEDFATYYCQQSSTTPLTFGGGTKVEIKR
As for B1, the “90 nM Ag Bound (RU)” value turned out to be 140 RU in experiment [1] and 130 RU in [10]. Further, the Kd in experiment [1] is not above 0.0274 nM; in experiment [4], 0.0955 nM; in experiment [5] it was 0.186 nM; in [10], 0.0197 nM. For the same molecule, the koff was not above 1e-05 s⁻¹ in [1], 2.76e-05 s⁻¹ in experiment [4], 8.15e-05 s⁻¹ in [5] and not above 1e-05 s⁻¹ in experiment [10]. For the same molecule, the kon in experiment [1] is 365000 M⁻¹ s⁻¹; in experiment [4], 293000 M⁻¹ s⁻¹; in [5], 435000 M⁻¹ s⁻¹; in [10] it was 508000 M⁻¹ s⁻¹. The t½ is not below 19.2 h in experiment [1], 6.97 h in experiment [4], 2.36 h in [5] and not below 19.2 h in experiment [10]. In addition, the “Rabbit RBC Hemolysis Assay (IC50)” value is 2.3 nM in experiment [2] and 5.59 nM in [3]. Also, the EC50 in experiment [6] stood at 1.96 nM; in [7], 0.856 nM. Further, the “A549 Cytotoxicity Assay (IC50)” value is 0.0333 nM in experiment [8] and 7.82 nM in experiment [9].

B2: REGN3977 (antibody, V domains shown)
VH: QVQLKQSGPGLVQPSQSLSITCTVSGFSLTSYGVHWVRQSPGKGLEWLGVIWSGGDTDYNAAFISRLSISKDNSKSQLFFKMNSLRATDTAIYYCARNRGDIYYDFTYAMDYWGQGTSVTVSS
VL: DIQMTQSPASLSASVGETVTITCRASGNIQNYLAWYQQTQGKSPQLLVYSAKTLADGVPSRFSGSGSGTQYSLKINSLQPEDFGSYYCQHFWSTPYTFGGGTKLEIKR
notes: also called Control III; REGN3977-Control III
On to B2, for which, in experiment [1], the “90 nM Ag Bound (RU)” value was determined as 146 RU, binding was characterised by a dissociation constant (Kd) of 2.39 nM, the koff was 0.000495 s⁻¹ and the kon is 207000 M⁻¹ s⁻¹. The molecule also registered a t½ in experiment [1] of 0.39 h. In [4], this molecule yielded a Kd of 4.28 nM, an off-rate (koff) of 0.000956 s⁻¹, an on-rate constant (kon) of 223000 M⁻¹ s⁻¹ and a t½ of 0.202 h. Further, in [5], the affinity, expressed as Kd, was 11.4 nM; the koff is 0.00245 s⁻¹; the kon is 216000 M⁻¹ s⁻¹; the t½ worked out at 0.0783 h. In [10], the “90 nM Ag Bound (RU)” value was found to be 136 RU, the Kd was 3.48 nM, the koff came out at 0.000917 s⁻¹ and the kon turned out to be 263000 M⁻¹ s⁻¹. This molecule yielded a t½ in [10] of 0.21 h.

B3: H1H29336P (antibody, V domains shown)
VH: EVQLVESGGGLVQPGGSLRLSCAASGFTFSSYAMTWVRQAPGKGLEWVSSIRGSGYSSDYADSVKGRFTISRDNSENTVYLQMNRLRAEDTAVYYCAKERSVTAYYYYGMDVWGQGTTVTVSS
VL: DIQLTQSPSFLSASVGDRVTITCWASQDISSFLTWYQQKPGIAPKLLIYTASTLQSGVPSRFSGSGSGTEFTLTISSLQPEDFATYYCQQLKSYPLTFGGGTKVEIKR
Turning to B3, the “90 nM Ag Bound (RU)” value in experiment [1] was determined as 102 RU; in [10], 80.7 RU. Further, the Kd in [1] is not above 0.0204 nM; in experiment [4], 0.0408 nM; in experiment [5], 0.0809 nM; in experiment [10], not above 0.0116 nM. Moreover, the koff in [1] was not above 1e-05 s⁻¹; in experiment [4] it was 1.48e-05 s⁻¹; in [5], 4.36e-05 s⁻¹; in experiment [10] it was not above 1e-05 s⁻¹. Moreover, the kon was found to be 490000 M⁻¹ s⁻¹ in experiment [1], 367000 M⁻¹ s⁻¹ in [4], 544000 M⁻¹ s⁻¹ in experiment [5] and 860000 M⁻¹ s⁻¹ in experiment [10]. Also, the t½ in experiment [1] is not below 19.2 h; in experiment [4] it was 13.1 h; in experiment [5], 4.41 h; in experiment [10], not below 19.2 h. Besides, the results for the “Rabbit RBC Hemolysis Assay (IC50)” value in experiment [2] and in experiment [3] were 0.205 nM and 0.81 nM, respectively. Moreover, the concentration giving a half-maximal response (EC50) is 2.28 nM in experiment [6] and 1.03 nM in experiment [7]. For the same molecule, the figures for the “A549 Cytotoxicity Assay (IC50)” value in experiment [8] and in [9] were 0.84 nM and 6.37 nM, respectively.

B4: REGN3514 (antibody, V domains shown)
VH: EMQLLESGGGLVQPGGSLRLSCAASGFTFSSYAMNWVRQAPGEGLEWVSAITISGITAYYTDSVKGRFTISRDNSKNTLYLQMNSLRAGDTAVYYCAKEEFLPGTHYYYGMDVWGQGTTVTVSS
VL: AIQMTQSPSSLSASVGDRVTITCRASQGIRNDLGWYQQKPGKAPKLVIYSASTLQSGVPSRFSGSGSGTDFTLSISSLQPDDFATYYCLQDYNYPWTFGQGTKVEIKR
notes: also called Control I; Control I-REGN3514
Regarding B4, the “90 nM Ag Bound (RU)” value in experiment [1] is 169 RU; in experiment [10] it was 141 RU. The dissociation constant (Kd) is 0.146 nM in experiment [1], 0.83 nM in experiment [4], 2.42 nM in experiment [5] and 0.453 nM in experiment [10]. Also, the koff in [1] was found to be 3.9e-05 s⁻¹; in experiment [4], 0.000122 s⁻¹; in experiment [5], 0.000596 s⁻¹; in experiment [10], 0.000196 s⁻¹. The on-rate constant (kon) in experiment [1] turned out to be 267000 M⁻¹ s⁻¹; in [4] it was 147000 M⁻¹ s⁻¹; in [5] it was 246000 M⁻¹ s⁻¹; in experiment [10], 431000 M⁻¹ s⁻¹. Moreover, the t½ in experiment [1] worked out at 4.94 h; in [4] it was 1.58 h; in experiment [5] it was 0.323 h; in experiment [10], 0.985 h. Also, the “Rabbit RBC Hemolysis Assay (IC50)” value in experiment [2] amounted to 2.44 nM; in experiment [3], 1.01 nM. Moreover, the concentration giving a half-maximal response (EC50) in experiment [6] was determined as 0.696 nM; in experiment [7] it was 7.59 nM. Also, the “A549 Cytotoxicity Assay (IC50)” value came out at 0.807 nM in [8] and 17.8 nM in experiment [9].

B5: H1H29332P (antibody, V domains shown)
VH: EVQLVESGGDLVQPGGSLRLSCKASGFTFSTFAMNWVRQAPGRGLEWVSAIGASGYSTYYVDSMKGRFTISRDNSKNTLYLQMNSLGAEDTAVYYCAKEYSVSSNYYYGMDVWGQGTTVTVSS
VL: DIQMTQSPSSLSASVGDRVTITCRASQTIRRYLNWYQQKAGKAPKLLIYAASSLLSGVPSRFSASGSGTDFTLTISSLQPEDFSTYYCQQTYSIPITFGQGTRLEIKR
B5: the “90 nM Ag Bound (RU)” value in experiment [1] is 152 RU; in experiment [10], 163 RU. Further, the dissociation constant (Kd) in [1] came to 0.0548 nM; in experiment [4], 0.285 nM; in experiment [5], 0.595 nM; in experiment [10] it was 0.092 nM. Further, the off-rate (koff) came to 1.3e-05 s⁻¹ in experiment [1], 3.83e-05 s⁻¹ in experiment [4], 0.000106 s⁻¹ in experiment [5] and 2.68e-05 s⁻¹ in experiment [10]. The association rate constant (kon) amounted to 237000 M⁻¹ s⁻¹ in [1], 133000 M⁻¹ s⁻¹ in [4], 178000 M⁻¹ s⁻¹ in experiment [5] and 293000 M⁻¹ s⁻¹ in [10]. For the same molecule, the t½ in experiment [1] stood at 14.8 h; in [4], 5.03 h; in [5], 1.82 h; in experiment [10], 7.19 h. The “Rabbit RBC Hemolysis Assay (IC50)” value in [2] amounted to 15.3 nM; in [3] it was 4.06 nM. Further, the results for the 50% effective concentration (EC50) in experiment [6] and in [7] were 2.12 nM and 0.814 nM, respectively. The “A549 Cytotoxicity Assay (IC50)” value in experiment [8] amounted to 6.47 nM; in experiment [9] it was 32.9 nM.

B6: H1H29329P (antibody, V domains shown)
VH: EVQLVESGGGLVQPGGSLRLSCAASGFTFSDHEMNWVRQAPGKGLEWISYIGSGVVTMYYADSVRGRFTISRDNAKKTLYLQMNSLRAEDTAVYYCARDRGYYFGSEAFHYWGQGTLVTVSS
VL: DIQMTQSPSTLSASVGDRVTITCRASQSISNWLAWYQQKPGKAPKLLIYKSSSLESGVPSRFSGSGSGTEFTLTISSLQPDDFATYYCQQYKSYSLTFGGGTKVEIKR
Regarding B6, the results for the “90 nM Ag Bound (RU)” value in [1] and in [10] were 81 RU and 59.6 RU, respectively. The dissociation constant Kd in experiment [1] turned out to be 5.16 nM; in experiment [4], 15 nM; in [5], 107 nM; in experiment [10], 9.12 nM. Besides, the dissociation rate constant (koff) was found to be 0.00095 s⁻¹ in experiment [1], 0.0023 s⁻¹ in experiment [4], 0.011 s⁻¹ in experiment [5] and 0.00505 s⁻¹ in [10]. Moreover, the kon in experiment [1] was found to be 184000 M⁻¹ s⁻¹; in [4], 153000 M⁻¹ s⁻¹; in experiment [5], 103000 M⁻¹ s⁻¹; in experiment [10] it was 554000 M⁻¹ s⁻¹. Besides, the t½ came to 0.203 h in experiment [1], 0.0833 h in [4], 0.0167 h in [5] and 0.0383 h in experiment [10]. In addition, the “Rabbit RBC Hemolysis Assay (IC50)” value came out at 56.4 nM in experiment [2] and 2.39 nM in experiment [3]. The half-maximal effective concentration (EC50) turned out to be 0.597 nM in experiment [6] and 7.44 nM in experiment [7]. The “A549 Cytotoxicity Assay (IC50)” value stood at 10.8 nM in experiment [8] and 54.3 nM in experiment [9].
